± gives the standard deviation of the averaged measurements.
These sequences were tested on Saccharomyces cerevisiae (assay: protein stability index of tFT-peptide fusion (C-terminal peptide) (PSI (0-1 scale)); higher = more stable (slower turnover)). Settings: genetic background: das1 deletion; temperature: 30 C.
Protocol: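 MPS profiling in S. cerevisiae of the yeast C-terminome library: the last 12 aa of each annotated ORF are fused to the C-terminus of a sfGFP-mCherry timer, after a GGGS linker. Cells are FACS-sorted into 8 mCherry/sfGFP bins and deep-sequenced. PSI runs from 0 (unstable) to 1 (stable); wild type and das1Δ backgrounds, two technical replicates each.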

Sequence	protein stability index
ERCSLQNPFYSI [YNR066C C-terminal 12 aa]	0.7315 ± 0.0067
ERTSLLSGETQT [YPQ2 C-terminal 12 aa]	0.67739 ± 0.00033
ESEYREQQQNPQ [SHQ1 C-terminal 12 aa]	0.688 ± 0.017
ESFVECFESFIE [PBI1 C-terminal 12 aa]	0.714 ± 0.03
ESGPSIVHHKCF [ACT1 C-terminal 12 aa]	0.6875 ± 0.003
ESTHKEAMGEKN [MNN5 C-terminal 12 aa]	0.648 ± 0.014
EVEKIVKKVLKD [DBP5 C-terminal 12 aa]	0.7225 ± 0.0038
EWTKLYAKKKPE [UBC13 C-terminal 12 aa]	0.6853 ± 0.0049
EYEYEDDGLFER [GCD1 C-terminal 12 aa]	0.695 ± 0.017
FEGKPLYQMLKI [YAL047W-A C-terminal 12 aa]	0.638 ± 0.031
FFFLLTSLLSPF [LCL1 C-terminal 12 aa]	0.637 ± 0.029
FFKQAEQEQADV [PRP11 C-terminal 12 aa]	0.7024 ± 0.001
FFRYFTFSSSYW [YDR464C-A C-terminal 12 aa]	0.7002 ± 0.004
FFSKKRPNIDSK [YOL037C C-terminal 12 aa]	0.696 ± 0.011
FGTWEIVIRLLS [RIM2 C-terminal 12 aa]	0.382 ± 0.0062
FILKAKLEWIKW [YOL075C C-terminal 12 aa]	0.515 ± 0.018
FKQSEITLYRTR [PEP8 C-terminal 12 aa]	0.693 ± 0.032
FKSGQNMLKDEL [SCJ1 C-terminal 12 aa]	0.681 ± 0.022
FLFHCVHLLLSG [YDR535C C-terminal 12 aa]	0.511 ± 0.011
FLRNFKDNRFLQ [YOR121C C-terminal 12 aa]	0.726 ± 0.025
FPLLMSEIEDFR [YNL067W-A C-terminal 12 aa]	0.718 ± 0.019

Sequence	protein stability index
FPRNLAKSVTVE [GFA1 C-terminal 12 aa]	0.599 ± 0.0094
FQVVSKKKGRKH [SMY2 C-terminal 12 aa]	0.691 ± 0.017
FSRASCITVWLV [YPR160C-A C-terminal 12 aa]	0.6275 ± 0.0035
FSSEFSSDPTVN [YJL206C C-terminal 12 aa]	0.69642 ± 0.00024
FSVCCKDATEVS [YHR070C-A C-terminal 12 aa]	0.6764 ± 0.0025
FTLVDYDKKFHK [ADH7 C-terminal 12 aa]	0.702 ± 0.043
FTNQKLAKLEVR [YMR141C C-terminal 12 aa]	0.57877 ± 0.00025
FVLIVLGLLTYL [GET2 C-terminal 12 aa]	0.364 ± 0.0094
FVSHSRFFNRGT [VPS53 C-terminal 12 aa]	0.684 ± 0.03
FYIDKFQVREVK [SUC2 C-terminal 12 aa]	0.7059 ± 0.0061
GAAIAAGVAFLF [YCL048W-A C-terminal 12 aa]	0.716 ± 0.011
GAGIMALIGKWA [ZRT1 C-terminal 12 aa]	0.687 ± 0.017
GALLAGAAALLL [CCW12 C-terminal 12 aa]	0.7007 ± 0.0036
GAQIISLDEDVF [GIP1 C-terminal 12 aa]	0.715 ± 0.045
GEGESIDDKLTD [STB1 C-terminal 12 aa]	0.6976 ± 0.00096
GESISMLFEHGW [PRS5 C-terminal 12 aa]	0.719 ± 0.012
GESVDKVTKNEQ [YPR114W C-terminal 12 aa]	0.691 ± 0.011
GETDSKIKYKYR [SND2 C-terminal 12 aa]	0.712 ± 0.06
GFASLIKDFKKK [NET1 C-terminal 12 aa]	0.672 ± 0.018
GGGYLTSLKLFI [YOR041C C-terminal 12 aa]	0.68787 ± 0.00068
GGNLPQGYFYTQ [GTS1 C-terminal 12 aa]	0.707 ± 0.0075

Sequence	protein stability index
GIRRIVHEPLGI [MTE1 C-terminal 12 aa]	0.733 ± 0.016
GIVRHLIDSVKL [ACS1 C-terminal 12 aa]	0.695 ± 0.012
GKGAIDGFFKRK [RNH202 C-terminal 12 aa]	0.694 ± 0.03
GLEFHDVEDRIA [PEX18 C-terminal 12 aa]	0.7047 ± 0.0036
GLKGLFPTSYCK [BZZ1 C-terminal 12 aa]	0.702 ± 0.039
GLQKKNIKIHGF [SUI1 C-terminal 12 aa]	0.699 ± 0.024
GQGTTLGGPFFP [ALB1 C-terminal 12 aa]	0.724 ± 0.019
GRENGDVNIWAV [MDV1 C-terminal 12 aa]	0.702 ± 0.013
GRYAQIHEKHIE [ASN1 C-terminal 12 aa]	0.7022 ± 0.0044
GSAAVAGALLLL [YNL190W C-terminal 12 aa]	0.689 ± 0.02
GSSLITEGVYVI [NSE1 C-terminal 12 aa]	0.686 ± 0.021
GSVPANWNWSSF [PIB2 C-terminal 12 aa]	0.739 ± 0.03
GTVCYGMIEIFF [VTC5 C-terminal 12 aa]	0.596 ± 0.009
GVITPVYFPLRW [YDR215C C-terminal 12 aa]	0.725 ± 0.008
GYACPTHYLREM [MXR1 C-terminal 12 aa]	0.6899 ± 0.0052
HEKRTEEVARYA [YGR026W C-terminal 12 aa]	0.7173 ± 0.0035
HEVDTEKINIFQ [YML003W C-terminal 12 aa]	0.729 ± 0.018
HGGNVSSSTYQA [GND1 C-terminal 12 aa]	0.685 ± 0.013
HGNDFLQHVNRK [RSM22 C-terminal 12 aa]	0.716 ± 0.03
HIFYFVLSYSEW [YIL030W-A C-terminal 12 aa]	0.172 ± 0.022
HIREDYLRQFGN [KTR5 C-terminal 12 aa]	0.691 ± 0.027

Sequence	protein stability index
HKSGKLLLPVYI [ECO1 C-terminal 12 aa]	0.636 ± 0.0084
HLQRCLSRGARR [SGF11 C-terminal 12 aa]	0.698 ± 0.016
HNILDRCLKRLS [RKM3 C-terminal 12 aa]	0.699 ± 0.03
HNPSLWSCIFGK [SWS2 C-terminal 12 aa]	0.716 ± 0.02
HNVCGRAFSLPL [HSL7 C-terminal 12 aa]	0.7123 ± 0.0037
HQKARSSYCCIQ [XDJ1 C-terminal 12 aa]	0.759 ± 0.02
HRIASKIRSKLR [GIP4 C-terminal 12 aa]	0.686 ± 0.0021
HTSVKALQRMTW [CTH1 C-terminal 12 aa]	0.7271 ± 0.0051
HWLQLKPGQPMY [MF(ALPHA)1 C-terminal 12 aa]	0.7177 ± 0.0044
HYSPFYQLPLIF [YGR240C-A C-terminal 12 aa]	0.683 ± 0.022
IAPEVTYRGFIE [RIM9 C-terminal 12 aa]	0.689 ± 0.027
IDEIYEDKWLKI [PSK2 C-terminal 12 aa]	0.727 ± 0.027
IDLVLVVNVLSL [YCR064C C-terminal 12 aa]	0.425 ± 0.015
IDTWEIKFNELF [YLR287C C-terminal 12 aa]	0.732 ± 0.042
IELWETFYQTNL [VPS5 C-terminal 12 aa]	0.745 ± 0.011
IESTLSNKLSIN [YCR013C C-terminal 12 aa]	0.696 ± 0.024
IFTSGSKSMKDL [ALG6 C-terminal 12 aa]	0.73 ± 0.01
IFVAILLRYAKI [PCA1 C-terminal 12 aa]	0.243 ± 0.013
IFVGETIFFFLF [YDR053W C-terminal 12 aa]	0.625 ± 0.016

Reference: the supplement of paper PMC10724198
